Substrate: O=P(O)(O)OC[C@H]1O[C@H](OP(=O)(O)O)[C@H](O)[C@@H](O)[C@@H]1O
Assay: phosphatase activity, BioMol Green phosphate assay
Assay type: biochemical, Homo sapiens
Settings: without IMP, 100 mM Hepes pH 7.2, 2 mM MgCl2, 2 mM β-mercaptoethanol

B1: PMM1 (α-PMM1) (Homo sapiens) (protein)
chain: MAVTAQAARRKERVLCLFDVDGTLTPARQKIDPEVAAFLQKLRSRVQIGVVGGSDYCKIAEQLGDGDEVIEKFDYVFAENGTVQYKHGRLLSKQTIQNHLGEELLQDLINFCLSYMALLRLPKKRGTFIEFRNGMLNISPIGRSCTLEERIEFSELDKKEKIREKFVEALKTEFAGKGLRFSRGGMISFDVFPEGWDKRYCLDSLDQDSFDTIHFFGNETSPGGNDFEIFADPRTVGHSVVSPQDTVQRCREIFFPETAHEA
Protein B1 has a Km of 18 ± 3.4 µM, a kcat of 0.018 ± 0.0012 s⁻¹ and a kcat/Km of 1000 M⁻¹ s⁻¹.

Source: article PMC10251306
